For 50 variants, enrichment results are on record in publication PMC13397619.

The chains are these.
B1: NLV2 TCR alpha chain (CDR3α only) (parent)
chain: AGPMKTSYDKVI
partner: NLVGMVATV

In the experiment the parent is B1. In words: T-Switch: Jurkat TCRβ−/− cells expressing a CDR3 saturation-mutagenesis library, stained with two peptide-HLA-A*02:01 tetramers (original and novel peptide) plus anti-CD3, FACS-sorted into four gates, gDNA sequenced. The following applies: with HLA-A*02:01 with peptide … (NLV 2-2, the original bait), tetramers 1 µg/mL, 30 min on ice, DP and SW gates expanded about 10 days between rounds ('two to three rounds of selection' in the Methods), gate SP: higher = more of the variant in the gate that binds the original peptide and not the novel one = retained original binding. Fold enrichment of the CDR3 variant in one FACS gate of a two-tetra, unresolved parent, parent is a CDR3 fragment, scale: fold enrichment, numbering: sequential-on-construct, sequence ….
As for […] (CDR3 as printed); P3H derived by comparing it with the table's wild-type CDR3 AGPMKTSYDKVI, the enrichment turned out to be 0.

Consider […] (CDR3 as printed); A1E derived by comparing it with the table's wild-type CDR3 AGPMKTSYDKVI, for which the enrichment turned out to be 0.186.

[…] (CDR3 as printed); M4C derived by comparing it with the table's wild-type CDR3 AGPMKTSYDKVI: the enrichment was 0.

As to […] (CDR3 as printed); D9E derived by comparing it with the table's wild-type CDR3 AGPMKTSYDKVI, the enrichment stood at 0.

On to […] (CDR3 as printed); K5G derived by comparing it with the table's wild-type CDR3 AGPMKTSYDKVI, for which the enrichment was determined as 12.9.

As for […] (CDR3 as printed); I12N derived by comparing it with the table's wild-type CDR3 AGPMKTSYDKVI, the enrichment amounted to 0.107.

As for […] (CDR3 as printed); P3A derived by comparing it with the table's wild-type CDR3 AGPMKTSYDKVI, the enrichment is 0.

[…] (CDR3 as printed); D9R derived by comparing it with the table's wild-type CDR3 AGPMKTSYDKVI: the enrichment was determined as 0.

With […] (CDR3 as printed); K10E derived by comparing it with the table's wild-type CDR3 AGPMKTSYDKVI, the enrichment worked out at 0.

[…] (CDR3 as printed); M4V derived by comparing it with the table's wild-type CDR3 AGPMKTSYDKVI: the enrichment was determined as 18.1.

Consider […] (CDR3 as printed); D9L derived by comparing it with the table's wild-type CDR3 AGPMKTSYDKVI, for which the enrichment is 0.

[…] (CDR3 as printed); D9Q derived by comparing it with the table's wild-type CDR3 AGPMKTSYDKVI: the enrichment was determined as 0.

As for […] (CDR3 as printed); K10A derived by comparing it with the table's wild-type CDR3 AGPMKTSYDKVI, the enrichment worked out at 0.

As for […] (CDR3 as printed); I12R derived by comparing it with the table's wild-type CDR3 AGPMKTSYDKVI, the enrichment is 0.

For the variant […] (CDR3 as printed); K5M derived by comparing it with the table's wild-type CDR3 AGPMKTSYDKVI, the enrichment is 4.77.

On to […] (CDR3 as printed); K5S derived by comparing it with the table's wild-type CDR3 AGPMKTSYDKVI, for which the enrichment was determined as 4.22.

On to […] (CDR3 as printed); M4G derived by comparing it with the table's wild-type CDR3 AGPMKTSYDKVI, for which the enrichment stood at 0.

For the variant […] (CDR3 as printed); I12K derived by comparing it with the table's wild-type CDR3 AGPMKTSYDKVI, the enrichment amounted to 8.2.

As for […] (CDR3 as printed); K10R derived by comparing it with the table's wild-type CDR3 AGPMKTSYDKVI, the enrichment is 0.

Take […] (CDR3 as printed); K10C derived by comparing it with the table's wild-type CDR3 AGPMKTSYDKVI: the enrichment stood at 0.162.

As to […] (CDR3 as printed); M4P derived by comparing it with the table's wild-type CDR3 AGPMKTSYDKVI, the enrichment turned out to be 0.

In the case of […] (CDR3 as printed); K5C derived by comparing it with the table's wild-type CDR3 AGPMKTSYDKVI, the enrichment worked out at 0.

Regarding […] (CDR3 as printed); M4F derived by comparing it with the table's wild-type CDR3 AGPMKTSYDKVI, the enrichment was 0.

Regarding […] (CDR3 as printed); K5L derived by comparing it with the table's wild-type CDR3 AGPMKTSYDKVI, the enrichment worked out at 0.

As to […] (CDR3 as printed); K5Q derived by comparing it with the table's wild-type CDR3 AGPMKTSYDKVI, the enrichment turned out to be 7.86.

Take […] (CDR3 as printed); K10M derived by comparing it with the table's wild-type CDR3 AGPMKTSYDKVI: the enrichment turned out to be 0.

On to […] (CDR3 as printed); S7W derived by comparing it with the table's wild-type CDR3 AGPMKTSYDKVI, for which the enrichment was found to be 0.

On to […] (CDR3 as printed); A1L derived by comparing it with the table's wild-type CDR3 AGPMKTSYDKVI, for which the enrichment was determined as 0.

As for […] (CDR3 as printed); K10V derived by comparing it with the table's wild-type CDR3 AGPMKTSYDKVI, the enrichment was 0.

[…] (CDR3 as printed); P3D derived by comparing it with the table's wild-type CDR3 AGPMKTSYDKVI: the enrichment turned out to be 0.

As to […] (CDR3 as printed); K5P derived by comparing it with the table's wild-type CDR3 AGPMKTSYDKVI, the enrichment is 9.21.

As to […] (CDR3 as printed); T6E derived by comparing it with the table's wild-type CDR3 AGPMKTSYDKVI, the enrichment turned out to be 0.

[…] (CDR3 as printed); P3S derived by comparing it with the table's wild-type CDR3 AGPMKTSYDKVI: the enrichment came out at 0.

For […] (CDR3 as printed); G2D derived by comparing it with the table's wild-type CDR3 AGPMKTSYDKVI, the enrichment was 0.

Regarding […] (CDR3 as printed); K5N derived by comparing it with the table's wild-type CDR3 AGPMKTSYDKVI, the enrichment was 0.

With […] (CDR3 as printed); K5R derived by comparing it with the table's wild-type CDR3 AGPMKTSYDKVI, the enrichment amounted to 0.

On to […] (CDR3 as printed); M4R derived by comparing it with the table's wild-type CDR3 AGPMKTSYDKVI, for which the enrichment amounted to 0.

As to […] (CDR3 as printed); K10G derived by comparing it with the table's wild-type CDR3 AGPMKTSYDKVI, the enrichment was determined as 0.

For […] (CDR3 as printed); K10P derived by comparing it with the table's wild-type CDR3 AGPMKTSYDKVI, the enrichment amounted to 0.

Regarding […] (CDR3 as printed); S7K derived by comparing it with the table's wild-type CDR3 AGPMKTSYDKVI, the enrichment was 0.

Take […] (CDR3 as printed); P3E derived by comparing it with the table's wild-type CDR3 AGPMKTSYDKVI: the enrichment was 0.526.

[…] (CDR3 as printed); T6G derived by comparing it with the table's wild-type CDR3 AGPMKTSYDKVI: the enrichment is 0.

Turning to […] (CDR3 as printed); A1R derived by comparing it with the table's wild-type CDR3 AGPMKTSYDKVI, the enrichment stood at 0.

For […] (CDR3 as printed); D9M derived by comparing it with the table's wild-type CDR3 AGPMKTSYDKVI, the enrichment was determined as 0.433.

For the variant […] (CDR3 as printed); G2F derived by comparing it with the table's wild-type CDR3 AGPMKTSYDKVI, the enrichment turned out to be 0.

In the case of […] (CDR3 as printed); S7A derived by comparing it with the table's wild-type CDR3 AGPMKTSYDKVI, the enrichment came out at 3.32.

As for […] (CDR3 as printed); G2S derived by comparing it with the table's wild-type CDR3 AGPMKTSYDKVI, the enrichment came out at 0.

In the case of […] (CDR3 as printed); M4L derived by comparing it with the table's wild-type CDR3 AGPMKTSYDKVI, the enrichment is 0.

In the case of […] (CDR3 as printed); I12C derived by comparing it with the table's wild-type CDR3 AGPMKTSYDKVI, the enrichment worked out at 0.

Take […] (CDR3 as printed); P3N derived by comparing it with the table's wild-type CDR3 AGPMKTSYDKVI: the enrichment worked out at 0.173.
